Assay results: patent US20230203188A1 (published 2023)

B1: Antibody A (antibody, human IgG1, kappa, L234A L235A)
heavy: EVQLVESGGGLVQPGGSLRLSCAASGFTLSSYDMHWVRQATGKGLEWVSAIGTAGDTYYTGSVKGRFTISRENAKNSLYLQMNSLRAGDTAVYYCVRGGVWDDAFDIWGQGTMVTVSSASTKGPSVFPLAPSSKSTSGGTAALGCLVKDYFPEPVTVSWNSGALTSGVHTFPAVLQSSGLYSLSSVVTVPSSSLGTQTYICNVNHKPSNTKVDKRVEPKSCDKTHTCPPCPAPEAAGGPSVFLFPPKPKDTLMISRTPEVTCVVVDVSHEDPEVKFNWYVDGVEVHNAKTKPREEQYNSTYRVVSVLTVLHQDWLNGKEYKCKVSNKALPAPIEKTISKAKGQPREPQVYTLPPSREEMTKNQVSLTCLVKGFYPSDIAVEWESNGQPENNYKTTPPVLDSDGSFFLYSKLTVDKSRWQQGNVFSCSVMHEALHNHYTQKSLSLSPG
light: DIQMTQSPSSLSASVGDRVTITCRASQDINNYLAWFQQKPGKAPKSLIYTASSLHSGVPSKFSGSGSGTDFTLTISSLQPEDFATYYCQQYVSYPYTFGQGTKLEIKRTVAAPSVFIFPPSDEQLKSGTASVVCLLNNFYPREAKVQWKVDNALQSGNSQESVTEQDSKDSTYSLSSTLTLSKADYEKHKVYACEVTHQGLSSPVTKSFNRGEC
notes: human IgG1 (LALA) backbone, kappa
B2: Antibody A10 (antibody, human IgG1, kappa, L234A L235A)
heavy: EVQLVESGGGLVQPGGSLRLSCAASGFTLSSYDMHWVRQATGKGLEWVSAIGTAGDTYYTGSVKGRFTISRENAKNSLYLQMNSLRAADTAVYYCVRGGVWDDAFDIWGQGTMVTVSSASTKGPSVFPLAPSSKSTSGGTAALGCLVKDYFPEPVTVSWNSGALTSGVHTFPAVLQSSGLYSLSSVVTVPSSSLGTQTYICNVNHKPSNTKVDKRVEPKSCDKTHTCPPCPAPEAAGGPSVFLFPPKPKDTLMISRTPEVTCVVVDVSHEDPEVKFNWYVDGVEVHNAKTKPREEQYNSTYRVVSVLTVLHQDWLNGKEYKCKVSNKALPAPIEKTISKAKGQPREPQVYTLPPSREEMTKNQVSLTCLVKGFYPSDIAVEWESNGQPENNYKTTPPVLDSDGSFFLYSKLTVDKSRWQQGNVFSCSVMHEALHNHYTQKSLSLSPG
light: B1 light
notes: engineered variant of Antibody A; IgG1 (LALA)
B3: KWAR23 (antibody, V domains shown)
VH: EVQLQQSGAELVKPGASVKLSCTASGFNIKDYYIHWVQQRTEQGLEWIGRIDPEDGETKYAPKFQDKATITADTSSNTAYLHLSSLTSEDTAVYYCARWGAYWGQGTLVTVSS
VL: QIVLTQSPAIMSASPGEKVTLTCSASSSVSSSYLYWYQQKPGSSPKLWIYSTSNLASGVPARFSGSGSGTSYSLTISSMEAEDAASYFCHQWSSYPRTFGAGTKLELK

How the values were obtained:
[1] = molecular target: T1, full-length cyno SIRPβ1 (XP_005568598, clone PA2), on CHO cells (cynomolgus monkey); experiment: flow cytometry on CHO cells expressing the target
T1 construct: whole, on cells; also called Cynomolgus SIRPβ1 XP_005568598 Clone PA2
Experimental: (§1) Antibody binding to cells expressing full-length cynomolgus SIRPβ1 (XP_005568598) and SIRPβ1v3 (XP_005568593) is evaluated by flow cytometry. SIRPβ1- or SIRPβ31V3-expressing CHO cells are blocked with donkey IgG and incubated on ice with increasing concentrations of antibodies for 60 minutes, washed and stained with AF647-conjugated donkey F(ab′)₂ anti-human IgG secondary reagent. Cells are washed, fixed, and analyzed by flow cytometry. Median fluorescent intensity is determined and used as a measure of antibody binding.

[2] = molecular target: T2, full-length cyno SIRPβ1v3 (XP_005568593, clone 1HC6), on CHO cells (cynomolgus monkey, UniProt A0A2K5VYQ9); experiment: flow cytometry on CHO cells expressing the target
T2 construct: whole, on cells; also called Cynomolgus SIRPβ1v3 XP-005568593 Clone 1HC6
T2 sequence: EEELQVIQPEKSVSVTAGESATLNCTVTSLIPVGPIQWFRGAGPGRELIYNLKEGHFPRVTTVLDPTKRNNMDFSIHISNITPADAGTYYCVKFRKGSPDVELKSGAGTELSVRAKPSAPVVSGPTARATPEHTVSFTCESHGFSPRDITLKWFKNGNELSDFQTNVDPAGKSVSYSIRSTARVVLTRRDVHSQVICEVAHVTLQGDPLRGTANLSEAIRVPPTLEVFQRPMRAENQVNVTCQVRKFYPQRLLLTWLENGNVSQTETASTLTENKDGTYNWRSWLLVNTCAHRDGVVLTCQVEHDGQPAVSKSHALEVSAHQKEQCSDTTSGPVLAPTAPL
Experimental: as §1

| Binder | EC50 [1] | EC50 [2] |
| --- | --- | --- |
| B1 | 0.7 nM | – |
| B2 | 0.6 nM | – |
| B3 | – | 0.4 nM |
